Laboratory results from the DeepSol protein solubility set.

Assay: soluble on expression in E. coli; label from the status in PepcDB or PDB records

MSLRVLVMVNDFPNKDNSYTANIFVKEQVKALSEFVEEINVIVPIPRGIELYRKTSYRDYAIGENVHVHFVKYINPLFPIAYSKLRREWIWLEHRALTNFIKKKDIKFDIIHAHYTWPSGAVGVKLKEEYKVPLVITEHTSQTFNRYITTRDPLAREIWQKADIIVRVRKGDIDLFSRVGITPSKIRYIPNGFDGNKFYPIPQEIARRKLNLVEYEKIIINVANMYSRVKGHEYLLRAFSKVAENTSDAFLILVGSGKLLSHLKKLADNLYLGHRVLFAGSKPHDEIPLWMNAADLFVLPSLRESFGVVQIEAMACGVPVVATRNGGSEEIIISEDYGLLCEPANPKELAEKILIALEKEWDREKIRKYAEQFTWENIAKKTLEVYRGVLKEGHHHHHH
soluble on expression in E. coli: soluble

MSLLSGSFLEENMKHLDTYIAFDLEFNTVNDVSHVIQGSAVKYDHHKEVDSFDTYVYTDVPLQSFINGLTGITSNKIAAAPKVEEVMAAFKNFVGELPLIGYNAQKSDLPILAENGLDLRDQYQIDLFDEAYDRRSADLNGIANLRLQTVATFLGIKGRGHNSLEDARMTAAIYESFLETDTNKAYLSQQEEVITDNPFVALGGFFDEGHHHHHH
soluble on expression in E. coli: not soluble

MSKLLLKTPCTTWTFDSLMACVFGIKVSDVKVYFDILKNGPSKINDIAERINRDRSTVQRAVQNLMNAGLVKRKQVNIKDGGYYYVYEAIPFEETKKIIKKTMEEWCNNMKKWVEELEFEDVVKEYLENIEE
soluble on expression in E. coli: not soluble

MDNSVMLDYLAVTIKGLAPDDVIEKILILPKDKFVLNEWGINKYQRHYSFSEIKVYFNKDWQSKMGVFIELRGQGCRQYEEYMENNVNNWVTLMKRISECHSNVTRLDIANDIFDDSLSVPLIYSYCKKQLCISTAKTFDYHEKSLLENGEKVGEMVTIGVRGTQQWCVYNKLLEQKLDQELPNTPLSWTRAELRCWQEKANLLAKQIKEGRPLKEIYFEVINGHYRFVSPRDKDSNRWRRKTVKWWNDYLETQEKTVLSVKRTKPTLKRSEKWTEKQVSRTLGKLYVAKAESHGQEKADSYIQHLLELGISKLTETDETDIQQYKQEQLSSAYWGIRKDDL
soluble on expression in E. coli: not soluble

MGSDKIHHHHHHMLLTIDDVLTQEELAIARSMLARSAWVSGLVTAGTQAAQVKNNQQVQENDPQIVNLRRLVLGALNRNALFFTATLPEKIVPPFFNRYSGETNHYGFHVDNAMRLLPDGSGYVRTDVSATLFLSDPQEYDGGELVINDTFGQHGVKLQAGSMVIYPSSSIHQVTPVTRGERLACFMFIQSMVRNPDQRRLLYEMDMALLQLRQNIGETPAVVSLTGTYHNLLRQWADS
soluble on expression in E. coli: not soluble

MIKEQVKSLWKLCFDDSEAFIELYFRLRYNNEVNLAIQSGEEVIAALQMLPYPMTFCNKIVPTSYISGACTHPDYRAKGVMRELLSQSFARMLRNGVLFSTLIPAEPWLFGYYAKTGYTPAFRISHKVFSLSELTIGPEPDTMIEETTEYQEDYYQYLTGKLSERACCLQHTPTDFKVVLADLALTQNTVLIARKDNRVTGIAVVYKHDDSSYINELFADNEAVRAQLLYRAGLRNGTERIILQLPPVESLPSVPLGMARIIDARAVLQLYAAGCPEVEMNIELTDEQLSVNNGYYYLCKGKCMTSEVRLPGVHTRMTIAELSEKILGEMQPYMSLMMN
soluble on expression in E. coli: not soluble

MCSSDSLQLHNVFVYGSFQDPDVINVMLDRTPEIVSATLPGFQRFRLKGRLYPCIVPSEKGEVHGKVLMGVTSDELENLDAVEGNEYERVTVGIVREDNSEKMAVKTYMWINKADPDMFGEWNFEEWKRLHKKKFIETFKKIMECKKKPQGQGNDDISHVLREDQ
soluble on expression in E. coli: soluble

MRSMWALLSVADKRGIVDFARGLAELGFRLLATGGTYRALREAGLPVTYISDFTGFPEILEGRVKTLHPKVHAALLARPDQEEELKALGLERIGVLAVNLYPFRETVARGASFAEALEQIDIGGPAMLRAAAKNHQAVLPVCDPEDYPRVLEALKAGPSPDFRQKLARKAFAHTALYDAAIAEWLSGEKFPEEKLLALRREASLRYGENPHQEAALYRVVGERGPLLEAQVLQGKAMSFNNYLDAEAAWNLVSEFAEPACVAVKHQNPCGVALGETPLEAYRKAYEADPVSIFGGIVAFNRPLDGPTAEALAEVFLEVVLAPSFSPEARAVLARKKNLRLLQVPFPAQGPYLDLRRLRGGVLLQDADTEDPAEPKVVTERAPTPEEWPDLRFAWKVVKHVRSNAIVVAKGGMTLGIGVGQTNRLAAARHALEAAGERAKGAVLASDAFFPFDDVVRLAASYGIAAIIQPGGSVRDQDSIRAAEEAGIAMVFTGVRHFRH
soluble on expression in E. coli: soluble

MIINKVKSLIKHGFNLAIDISADILLIFTETGRTYEYYKDQEAIYKRARKNRSLKDFKSLKVVVTTPNEETFLKLKNESKIIPLLMTYRNDDRSSMIKQAVTNLFANNIVKKGDIVVSILGIPKVTGGTDTISIFEVNEYPQILKYYDYISSIEKTKGKVINEVLNLCMELAVEGREGTPVGSIFVIGDSDRVLKMSSQLILNPFEGHESFIFDKQVKGTVKELSTIDGAFVIGEKGEVLCAGRYISCSGGNIELPLGLGARHHAAATISKYTGAIAITVSESGGVIRIFKNGEILSEIKPKKLSNTSEYSY
soluble on expression in E. coli: not soluble

MRSRPTEGNLLVSIGIPFLNPGPYLDLAVRSVFAQTYLNWELILVDDGSTDGSYERAVAIQDPRVRVLRDGQNKGLPARLNEIVRLAKGELVARMDADDAMHPLRLEKQVGFLQANPELDGVTTGAYLIDAEDRPIALLPGRQPSAQEVLARGGFLHPSLLARKSWFEAHPYSLDYPRAEDRELFVRTFKTSRLHVLSEPLYFYRWFGVPRGKTLRIGYRSERKVMWKYGPNLVGWGPSLRLIALSFGKELLTWFLEWTHLEKGFQTRRAFQPLLEMDQREALRTLKVIRETCVPGWDLEHHHHHH
soluble on expression in E. coli: not soluble

MALLVTQPSEGLPPLAATSRSIYEAAYQLSQGTGPFAIDTERAGAYRYDDRAYLLQIRREGSGTVLIDPEANRRLVTSVLGKVINNQPWIIHAAATDLPCLSELGFYPSTIFDTELAGRLAGLPRVNLASMLEERLEVTLKKAHGAEDWSRRPLPHSWLVYAALDVEKLIPLAESMKLLLEAHGKLEWHKQECAHLINTSSHGLDTQRSWQDIKGVSRLTRPRQLVVAEALWELRDDEARMKNTSVSRLLPDKVLISVAQRPPRNSQAALRASEIPKQYRKRIARWMPTINDVLESDPRTWPHTPQFDENQLPSKYVWEKIHPESLDDFEEVKNSIVEKALLLNLPAENLMQPHSVKELCWQLRDVPRPIAQDDVIECLMRLEARPWQIDNSASVITDTLNKIEHAS
soluble on expression in E. coli: not soluble

MGSDKIHHHHHHKVRPTKTTLKKDTQLYGVTIDDSWYDRTKMTDIIAALKAMPVKPTVRIVMSKDSSPKSYVNLFRKLHKVAYVMACPVDSYEMNLYKDVNSYRKRFAVAYHYLSSYTDIWEIGNEVNGTDWIKQKNTLITQKLKAVCQTISSAGGKTALTFYYENPKYDHDMIAWIKKNIPVMLRSRVDYGFISYYEDDNEGYQPDWQSVFNQLQNLFPNSNVGMGECGNTADNATENSKIAMAKRYYTMPKYTKHYVGGYFWWEWVQDCVPHENNPIYDAINKSLKK
soluble on expression in E. coli: not soluble

MKKILLVLNHSLAGFGSDEQAQLKPSGKKAPLGPGVTLLPFLQKQGAEIVATLYCGDQYYLENEEEVAKKFIGFAKKFHADAVLCGPAMHYPNFGEMAARLACKFNAAGIPAIAAMAEENPAVSHYYQQVPIVKMPKKGGIGLNNSFKQMAQLVVAKANGKETKQLEETSCF
soluble on expression in E. coli: not soluble

MSLRIALAGAGAFGEKHLDGLKNIDGVEITSIISRTGEQAAAVAAKYGAKHSSTELEDALARDDVDAVILCTPTQMHASQAIACMKAGKHVQVEIPLADSWADSQEVLRVQQETGKVCMVGHTRRFNPSHQFVHNRIKAGEFNVQQMDVQTYFFRRKNINAKGEPRSWTDHLLWHHAAHTVDLFAYQAGRIVKANAVEGPIHPELGIAMDMSIQLKSETGAICTLSLSFNNDGPLGTFFRYIGDTATYIARYDDLVNGKEEPIDVSKVDVSMNGIELQDREFVAAIREGREPNSSVQKVFDCYRVLGELEQQLAKGEGHHHHHH
soluble on expression in E. coli: soluble

MGSDKIHHHHHHMMKLTALVDNTRLDSRPELAVERGLSFHVETMGSQILFDTGSSSTFCENAALMNISIQDVDLAVISHRHHDHCNGTTHFIERNSKAKIYLKDCEDKNYLFKAFGFKNDVGINKELLKNASERLIFVEHTTEILPNIFIITEISDKYEKPKGNRYLYTQSENGYKNDTFDHELLLVVKESDGLIVFTGCAHSGVLNMVETAIELFPNHRIKAVVGGFHLVGLPLLNSIGGTKQDIQAIGQALSHYPIDKLYTGHCTGMKAFGLLKEVLGDRLEHLPTGRSVLI
soluble on expression in E. coli: not soluble

MKVTSLDGRQLRKMLRKEAAARCVVLDCRPYLAFAASNVRGSLNVNLNSVVLRRARGGAVSARYVLPDEAARARLLQEGGGGVAAVVVLDQGSRHWQKLREESAARVVLTSLLACLPAGPRVYFLKGGYETFYSEYPECCVDVKPISQEKIESERALISQCGKPVVNVSYRPAYDQGGPVEI
soluble on expression in E. coli: not soluble

MAHHHHHHMFYVDACSQNYRMPNSAPVFSQGFPQPNRAPSLVSPNDVQNCTNDGLVNPHQAPLFTVSQQGSVVAASVLPRTVLWTANGMYGVTQMREGPEEGATRFVPSKSPDGTPVSAMQSMFLPPMQQQQQQQQQASNCPLLYILTTVAVPQTYPQTSLQEQKSQHVTPVTHQIISMKGPSVAPSQSIGINTLNPSCITNNSDAMQTCGSGSKVNVNVVCRHFIKSCCNRRKCRFLHTLNEAPLANI
soluble on expression in E. coli: not soluble

GMKTIDLADIQAFLYRESRLLDDKAWDAWLDCYRADAVFWMPSWDDADALVTDPQREISLIYYPNRQGLEDRVFRIKTERSSATVPDTRTSHNIANVERESADGDVHTVRFNWHTLSYRYKTVSSYFGMSRYAIDFSGDAPKIVSKYVVLKNDYINQLIDIYHI
soluble on expression in E. coli: soluble

MGSDKIHHHHHHMQGIAFQDAYPDDLSHCYGCGRNNEQGHQLKSYWRGEQTIAHFMPKPFHTAIPGFVYGGLIASLIDCHGTGSASAAAQRALEQAGEQLDEPPRFVTAALNIDYLAPTPMGVELELVGEIKEVKPRKVVVEIALSADGKLCARGHMVAVKMPETMAATSA
soluble on expression in E. coli: not soluble

DIQALALLEILDPIREGAAETLDYLRSQEVGLKIISGDNPVTVSSIAQKAGFADYHSYVDCSKITDEELMAMAEETAIFGRVSPHQKKLIIQTLKKAGHTTAMTGDGVNDILALREADCSIVMAEGDPATRQIANLVLLNSDFNDVPE
soluble on expression in E. coli: not soluble

MGSDKIHHHHHHMIASPEPEYLTPEEYLQLEEASPIKHEYINGYAYAMAGATDAHVTVAGNLFVLLRNHVRGSGCRVYIADMKARIESLNRYYYPDVMVTCDQRDQETPNHKRFPCLIVEVLSNSTEAFDRGDKFVDYQEIETLKEYVLINTKRQRVECFKRGDHGLWILQSYTEQDKIFRLNSVDFEGAIAELYEDVIFEQTTL
soluble on expression in E. coli: not soluble

MGSSHHHHHHSSENLYFQGHMSSRAETPRVPFLDLKAAYEELRAETDAAIARVLDSGRYLLGPELEGFEAEFAAYCETDHAVGVNSGMDALQLALRGLGIGPGDEVIVPSHTYIASWLAVSATGATPVPVEPHEDHPTLDPLLVEKAITPRTRALLPVHLYGHPADMDALRELADRHGLHIVEDAAQAHGARYRGRRIGAGSSVAAFSFYPGKNLGCFGDGGAVVTGDPELAERLRMLRNYGSRQKYSHETKGTNSRLDEMQAAVLRIRLAHLDSWNGRRSALAAEYLSGLAGLPGIGLPVTAPDTDPVWHLFTVRTERRDELRSHLDARGIDTLTHYPVPVHLSPAYAGEAPPEGSLPRAESFARQVLSLPIGPHLERPQALRVIDAVREWAERVDQA
soluble on expression in E. coli: soluble
